Data from the DeepSol protein solubility set.

Experiment: soluble on expression in E. coli; label from the status in PepcDB or PDB records

Sequence | soluble on expression in E. coli
MSGLQGKIADAVKARGYQIMTSPDKAYYWIQANVLKADKMDLRESQGWLSRGYEGAAVGAALGGGITAYNTGSAGTTLGVGLATGLIGMAADAMVEDINYTMITDVQIAERTRTSVRTDNVAALRQGTSGSKIQTSTETGNQHKYQTRVVSSANQVNLKFEEAKPHLEDQLAKSIANIL | not soluble
MSGSYDEASEEITDSFWEVGNYKRTVKRIDDGHRLCNDLMSCVQERAKIEKAYAQQLTDWAKRWRQLIEKGPQYGSLERAWGAMMTEADKVSELHQEVKNSLLNEDLEKVKNWQKDAYHKQIMGGFKETKEAEDGFRKAQKPWAKKMKELEAAKKAYHLACKEERLAMTREMNSKTEQSVTPEQQKKLVDKVDKCRQDVQKTQEKYEKVLEDVGKTTPQYMEGMEQVFEQCQQFEEKRLVFLKEVLLDIKRHLNLAENSSYMHVYRELEQAIRGADAQEDLRWFRSTSGPGMPMNWPQFEEWNPDLPHTTAKKEKQPKKAEGATLSNATGAVESTSQAGDRGSVSSYDRGQTYATEWSDDESGNPFGGNEANGGANPFEDDAKGVRVRALYDYDGQEQDELSFKAGDELTKLGEEDEQGWCRGRLDSGQLGLYPANYVEAI | soluble
MSGVRMIDRWEEDNKMFLRLYIKERVLPTIYGSILGDLVGVPVEFKKRGSFFVEDIIGYGTYNQPAGTWSDDTSLTLCLIENIVEEGTIKSLMEKFVNYQDKGYMTPYGQMFDIGGATAQAIGRFKAGCLPQNCGGQSEYDNGNGAIMRISPLAFLFDNEFDFVKKAEVIKQYTEITHAHPRAIVGSIIYIELLLRLYHNNTLEKSIKDILDLFEENFPKNHIYMDEFKYYKRIFDSNFFNVPEEQILSDGYVVHTLEAAIWCVGNTKNFKEAILKAVNLGGDTDTVGVITGAIAGMYYKMDEIPQDWLNKIAKKQDIDELINKFYKYCADKAVIEKYGSL | not soluble
MSHAIQIREAHFPGRAPIDAYGNGGFRFADMSHRGSIICIPSGIYGIDMTGPVPTQEDISRVLEESDQIEVLLIGTGVELLRLPEELRVLLWEKRISSDTMSTGAAVRTFNVLLAEDRAVAALLFAVE | soluble
MSHHHHHHAGIFTFEEPVTHVSESIGIMEVKVLRTSGARGNVIVPYKTIEGTARGGGEDFEDTCGELEFQNDEIVKIITIRIFDREEYEKECSFSLVLEEPKWIRRGMKGGFTITEEYDDKQPLTSKEEEERRIAEMGRPILGEHTKLEVIIEESYEFKSTVD | soluble
MSHIRVAFAPLDTNPSTCGLETFATQIETLSQMMTAEEMKAELYDCVRRILREQKFDQIRENEAMLRLYKVMGRSSTNLKGRGIYEQLFKKDHFTGSLKFYLQWAEECGKDQMLEEFKDVLKLARDRLSERIEMTAIESGFRDLVDEYFNGESGDMFTRPDETMDLFRFNAGSKKKRRSSVCFLQHNVPINNSGKAAFGPKTKTDLRQACIDRPNYHGISIEEFRFAKWKDTFGEDVDDDYRKRKDSGVVFVKHQVIDTDRQAREEVENRFNANLNPRRRHLSPVSEKTVDDEEEKRSRIYSPLVATKDAHRPALRSKIENPPATVTLSSDTKSASEKDVSDSDDADDDERLKIMTAGRKDGNPPDRSTSISSNYSTASARTSKSGAGLDLMAENKCLEAHAMFSDTVHLASEKTMVLGDDSVFVPERSLATTQIVTDFSVLCDPDPTMTITQERPKKVSNGLNVVYDEAAEPEESQKVEESEVQPEIVLVSPVTQTSPATMFNDIYDDEIEFGFFKPSRGNFVTSTPAQGVHLVNIDEYFGNKEEESTHEQEAPVFVAPTSSTFSKLTRRKSLAANQAVQPSVTESSKPERSDPKDSSIDCLTANLGRRLSIGADEIPNLTENNESEITGCKIRRRSEIIKQGDINPWDETLRKKLMCLVRPPQNMHEFQERAPKIQALRDCEVSGEKLHIQTLIGQGGYAKVYRAVTDDQRTVAVKYEVPSCSWEVYICDQMRNRLKDRGLELMAKCCIMEVMDAYVYSTASLLVNQYHEYGTLLEYANNMKDPNWHITCFLITQMARVVKEVHASKIIHGDIKPDNFMITRKIDDKWGKDALMSNDSFVIKIIDWGRAIDMMPLKNQRFKGRAGTEAFDCPEMVDGRSWTYQADYFGFAATMAVVVAGKYAQLTGASVGDYSLNVDIKRRNILRDACYDVINRFLNIPSCDSLPDWNILIKSFSEIWNEKFEASGWRQAVSKFNEACDLAANQK | not soluble
MSHQCSLSELNENLVPFTARQIKSSLIWCAEDVRNPDELQNACSYIIDPGSTASAKVFHAERYGGSGIQRNGGGARCGFDGNYQVKGIGSNPLVGEGTDERHSNGALGAVHAIYEALWGEVLAQILPYSAVRVRAVLLTDLYTEKAFERSGRKSRRALLVREPVVRPAHFERAPYFQVKPEYSSLLIHDACRVRSVIHKLPGYLPVPPEEIDAEARTDPRIYCIEGLCELARREAWQMAFCRTRFLRLTTSPSNIAMDGRLMDFNGLSCLFPGDSPADFGYKLRLAELAKEPMVLMQGLSDLCLYIGKYMFDPDFTLAARLKVEEIFQKTFHEACYYCYLELLGIPGEFITQKEIPDILKELVNSFVALLNKYYEKSHAQDIVNQDGSPLQKLVVTLIHHRHNQKQALNSSIKNDVYFTVAQQCFSQAIHWLTQGSTRRQINASLLLKEIEHHTMKRLQPREELRKENMCEKIAILLDNHGDDPLFLQEAISDMKNFMLKFSRDAFGYLEPIRNTV | not soluble
MSHVNQAVSCIFCYFQEMSFVCGISGELTEDPVVSQVSGHIFDRRLIVKFIAENGTDPISHGELSEDQLVSLKSGGTGSAPRNVSGTSIPSLLKMLQDEWDTVMLNSFSLRQQLQIARQELSHSLYQHDAACRVISRLSKELTAAREALSTLKPHTSAKVDDDVSIDESEDQQGLSEAILAKLEEKSKSLTAERKQRGKNLPEGLAKTEELAELKQTASHTGIHSTGTPGITALDIKGNLSLTGGIDKTVVLYDYEKEQVMQTFKGHNKKINAVVLHPDNITAISASADSHIRVWSATDSSSKAIIDVHQAPVTDISLNASGDYILSASDDSYWAFSDIRSGKSLCKVSVEPGSQIAVHSIEFHPDGLIFGTGAADAVVKIWDLKNQTVAAAFPGHTAAVRSIAFSENGYYLATGSEDGEVKLWDLRKLKNLKTFANEEKQPINSLSFDMTGTFLGIGGQKVQVLHVKSWSEVVSLSDHSGPVTGVRFGENARSLVTCSLDKSLRVFSF | not soluble
MSIATQEFDAIVIGAGGAGLRASFQLSQSGFKTAVVSKVFPTRSHTVAAQGGIAAALGNIEFDDGLPSDDWKWHMYDTVKGSDYIGDQDAIEYMCEHAPQSIIELEHMGMPFSRLKNGKIYQRAFGGMSRNYDPANQAERTCAAADRTGHALLHTLYQGNLAHKTDFYTEWFAVDLVKADDGSIAGVIALCIETGETVFLKAKITILATGGAGRIYESSTNAYINTGDGMGLALRAGLPLQDMEFWQFHPTGIAGAGVLVTEGCRGEGGVLRNKDGERFMERYAPNAKDLACRDVVSRASQQEIMEGRGDTFSGTSCVWLDLTHLGEDVINERLPTVRELGRTFAGIDPVEKPIPVVPTCHYQMGGIPTNKHGQVITQVDGKDKVIGGLYAVGECASVSVHGANRLGSNSLLDLVVFGRAAGMHAEQSLKEGMPMKEVSQENIEKATARITKWDTSEQRGCKEKISELRKELQRVMQQYFSVFRQESTMKEGLDKLFNIRERLDNAVLEDNSRIFNMMRIEALELDNLVLTAIATAKLALERKESRGAHSRVDYPERDDKNWMKHTLYFLEGDRTSLRDVNMSPTKVKAFQPAERKY | not soluble
MSIDMHCHLDLYPRPDLVAEESKRRGTYILSVTTTPKAWHGTSLLAKESQRIRTALGLHPQIAHQRSHELDLFDSLLSETKYVGEIGLDGGQGFKEHWDIQLKVFRHILNSVNRAGGKIMTIHSRGSASAVLDEIENIDGVAILHWFTGTPKQLERAIDLGCWFSVGPAMLDTIKGKALVLKIPKSRILTETDGPFAKFRNDPLMPWDSGIAEKQLAALWGISQMEVNAQLVDNFKVLCTS | soluble
MSIESSATPTTPNAEALQLNSTEVRILGCLIEKQATNPETYPLTLNALVIACNQKTSRDPVMNLTQGQVGQSLRALEGRGLTRLVMGSRADRWEHKVDKGLELVPAQVILTGLLLLRGPQTVSELLTRSNRMHDFEDSEQVVHQLERLIARGLATLVPRQSGQREDRYMHLIGDPEDLQD | soluble
MSIMDVQHVAQFYQQLDKSQLHRLIEIYHPDVVFEDAAHRIEGFDALYQYFLNLYQNVHTCTFTIHEQYAVNEGAFLVWTMHLRHPKLAKGEQVDVKGVSHLHFAEGKVTYHRDYFDMGEMLYEQLPVLGQVIRAIKRRLGQ | not soluble
MSITINKLEIENVKRIKAVKIEPSATGLTIIGGNNNQGKTSVLDAIAWALGGNKYKPSQAMREGSQVPPTLKITMSNGLIVERKGKNASLKVIDPNGQKGGQQLLDSFVEELAINLPKFMDSTPKEKADVLLEIIGVGDQLAELELKEKEIYNQRHAIGVIADQKEKFAKEMTYYPDAPKQLVSISELIQQHQAILAKNGENAQKRQNVERIRYDYNQSILEVDRLRKLLADAEAKTNKLSEDLKIANTDAMDLHDESTAEIEANIADIDEVNRKVRANFDKDKAEEDAKQQREQYNILTNDIESIRQQKRDLLINADLPLEGLSVDDGKLLYLGQEWDNMSGSQQLIVATAIVRKLKPDCGFVLIDKLEQMDNITLEQFGKRLEQEGLQAIATRVSIGEECAIIIEDGYSVENKAHNFKTAEGGNFAETVAPTWKGEF | not soluble
MSITPHRLPVAPVIVREAYLSLLRKGWRPGDRDLKTPRNVKIETGIIEKAEGSALVKLGKTQVIAGVKAGVGAPFKDTPNQGVLTVHAEFVPLASPVFEPGPPDENAIELARVVDRSLREVGAVDLESLVIRPGEKVWVLWVDLYIIDHDGNLFDASMLATMAVLLTARLPRYEESETGEIIISKEGEGEELKVKTRVVTVTTAKIDRYIVVDPNIEEEAVSDVRLVTAVDENGRIVGLQKTGMGSLTEADIETMIGYSLEASKVYFKALEEAIKP | soluble
MSIWCAVCNDLKPCEEATQLIPCLHTFCTKCLKKSTKKMRVCPVAHCYSSLTAPEPMTSTCEGENCQRKIMGNAEILRTACHHDICQHCYDLASRKEKSCCPALGCAELMIDEEDMICEGPCKKALVFDKTIVIPCCGARMCDVCGPKWTNGRDFCELGKCVNKESAKRRKSADATRQPCMGSLHCEGEVLRNFPSELECDHDVCIKCIGSMLDECEKNGKSPACPVKTCAIPYRCESVLALDAQFPEKKAFFSKFTLQAKFSMQTLKDDIVTNIIHGDLNTMNGQKFSLKIGQCDDDDGGMPMEFVREGTLGDLVRETRRVLKILPTDKIYGYYRIDDNKKSKLDVTKDTIRSSCSSLNINENTTVLVDTTGIVSRPKKQ | not soluble
MSKDEGKRKKESVVDLTRFLDKEIRVKFQGGREASGVLRGFDQLLNMVLDDCREYLRDPQNPSVVGDETRQLGLIVARGTAITVVSPADGLEQIANPFATQEEE | not soluble
MSKFAMVFPGQGSQSLGMLADLAAQFPIVEATFSEASSVLGYDLWQLVQQGPAEELNKTWQTQPALLTASVAIWRIWQHQGGKLPSLMAGHSLGEYSALVCAGVLDFKQAVSLVELRGKLMQEAVPEGTGAMYAIIGLDNESIAKACEESAQGQVVSPVNFNSPGQVVIAGNKDAVERAGAACKAAGAKRALPLPVSVPSHCALMKPAADKLAVALEKIDFQEPLFPVVNNVDVKAEVSPVAIRSALVRQLYNPVRWTESVEFIAAEGVELLLEIGPGKVLTGLTKRIVDSLAAAAVNDVVTLNSALEH | not soluble
MSKIAIIVDSSSYIPKDQLKKHHIYVIDNPIIFGETIYHEFNWPVNADFYQQMATTPIQPTTSQPAPGDFEAAFQAAKDDGYKQALVITLSSGFSGTFLNTSAIASSHSDIDIHVWDSRIACLGAGNQALLAAYLAEKGIGIDEILSKLQILRSRTGVFFVVDSISHLQRTGRLSGGQALVAGLLNIKPILNINTNKQGKIDAVAKTRKMSGAWRYIEKHFAKIADNYQRAGWPMRVSILDADNPELADAWLKRAEKRWPEIIFERGIIGPLVGVHIGGKAVGLIWAEDYKRLED | not soluble
